Results taken from the nanobody polyreactivity screen of Harvey et al. (2022).

assay: yeast display, Sf9 membrane polyspecificity reagent, FACS + sequencing; frameworks hold sequencing errors
In short: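 Sorting gates, low and high (top ~1%), were placed on anti-HA fluorescence to track expression and on streptavidin fluorescence to track reagent binding. A clone's polyreactivity label is taken from the gate it came out of. The reagent was 10% biotinylated, detergent-solubilized Sf9 membrane, applied for 1 hour at 4 °C to galactose-induced yeast display cells.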

Sequence | polyreactivity (PSR sort gate)
QVQLVESGGGLVQAGGTLRLSCAASGSTFAANAMGCSRQAPGKERELVAGISESGDRTYADSVKGRFTISRDNAKNTVYLQMNSQKPEETAVYYCNVGANVYLLYFPSRGGVYDYGYWGHGTQVTVSS | low polyreactivity
QVQLVESGGGLVQAGGTLRLSCAASGSTFLTNAMGWNRPAPGKERELVAAIRTSGGSTYYADSVKGRFTISRDNAKNTFYVLMNSLKPEDTAVYYCAASYLRRRFSEYYYWGQGTQVTVSS | high polyreactivity
QVQLVESGGGLVQAGGTLRLSCAASGSTFNEYAMGWYRQAPGKERELVAAIDERGGNTYYADSVKGRFTISRDNAKNTVYLQMNSLKPEDTAVYYCAADAYPYYQSYYPFEYWGQGTQVTVSS | low polyreactivity
QVQLVESGGGLVQAGGTLRLSCAASGSTFRRYAMGWYRHAPVKERELVAAISGRGGSTSYADSVKGRFTISRDNAKNTVYLQMNSLKPEDTAVYYCAADDKYFYPGNGYWGQGTQVTVSS | high polyreactivity
QVQLVESGGGLVQAGGTLRLSCAASGSTFSVNAMGWYRQAPGKERELVASITTSGGSTNYADSVKGRFTISRDNAKNTVYLQMNSLKPEDTAVYYCNDDTPGSSPSDYNYWGQGTQVTVSS | low polyreactivity
QVQLVESGGGLVQAGGTLRLSCADSGLTFAKYAMGWYRQAPGKERQLVAAISRSGGSTYYADSVKGRFTISRDNAKNTVYLQINSLKPEDTARFYCPKSSGTLWITKYDYWGQGTQVTVSS | low polyreactivity
QVQLVESGGGLVQAGGTLRLSCAPSGRIFKTYAMGWYRQAPGKERELVAAITNNGGSTYYADSVKGRFTISRDNAKNTVYLLMNSLKPEDTAVYYCAVYVKYHYPVVTTGYDYWGQGTQVTVSS | high polyreactivity
QVQLVESGGGLVQAGGTLRLSCDASGRTFGYNAMGWYRQAPGKAREFDAAITWSGGSTYYADSVKGRFTISRDNAKNTVYLQMNSLKPEDTAVYYCAADLGRPLHGVAYGYWGQGTQVTVSS | low polyreactivity
QVQLVESGGGLVQAGGTLRLSSAASGFTFGNYAMGWYRQAPGKERELVAAISGRSGRTYYADSVKGRFTISRDNAKNTVYLQMISLKPEVTAVYYCAKKVFGWEYYYWGQGTQVTVSS | high polyreactivity
QVQLVESGGGLVQAGGTLRLTCAASGRIFNSNDMRWYRQAPGKERELVASISPNTGTTYYADSVKGRFTISRDNAKNTVYLQMNSLKPEDTAVYYCAARGVYYQDGLVTGEAEYGYWGQGTQVTVSS | low polyreactivity
QVQLVESGGGLVQAGRSHRLSCAASGRTFKPYAMGWYRPAPGKERELVARISGSGGSTYYADSVKGRFTISRDYAKNTVYLQMNSLNPEDIAVYYCATTPYYWFDYWGQGRQVTVSS | low polyreactivity
QVQLVESGGGLVQAGRSHRLSCAASGSTYANTMGWYIQAPGKERELDAAITYTGGSTYYADSVKGRFTISRDNAKNTVYLQMNSLKPEDTAVYYCAADAQAPPGGFKEYDYWGQGTQVTVSS | low polyreactivity
QVQLVESGGGLVQAGRSIRLSCAASGRTFLGNSLGWYRQAPGKEMELVAAITRNGGGTYYPDSVKGRFTISRDNAKNTVYLQMNSLKPEDTAVYYCAALTSLFWRGGGLDYWGQGTQVTVSS | high polyreactivity
QVQLVESGGGLVQAGRSLLLSCAASGRIFDGYAKGRYRQAPGKERELVAAINSNDGTTYYADSVKGRFTISRDKAKHTVYVQMNSLKPEDTAVYYCAKVSYNAWSYGPQMDYWGQGTQVTVSS | low polyreactivity
QVQLVESGGGLVQAGRSLPLSCAASGRTFRPNAMGWYRQAPGKERELVAVSSWRGGRTYYADSVKGRFTISRDNAKNTVYLQMNSLKPEDTAVYYCAAGPTSRRWYDYWGQGTQVTVSS | high polyreactivity
QVQLVESGGGLVQAGRSLRLICAASGSTFKRYAMGWYRQAPGKERELVAAITWTGGRTYYADSVKGRFTISRDNANYTVYLQMNSLKPEDTAVYYCAADDPHTAYGYWGQGTQVTVSS | high polyreactivity
QVQLVESGGGLVQAGRSLRLSCAASGFIFWRYAMGWYRQAPGKERELVAAISSGRNTKYADSVKGRFTISRDNAKTTVYLQMNSLKPEDTAVYYCAVLGKYLWSATNRFPGSYDSWGHGTQVTVSS | high polyreactivity
QVQLVESGGGLVQAGRSLRLSCAASGFTFIRYDMGWYRQALGKETELVATITRRGGSTYYADSVKGRFTISRDNAKNTVYLQMNSLKPEDTAVYYCNRDYVTYGKYYYWGQGTQVTVSS | high polyreactivity
QVQLVESGGGLVQAGRSLRLSCAASGFTFLVYAMGWYRQAPGTERELVAAMSNGGSTNYADSVKGRFTITRDTAKNTVYLHMNSLKPEDTAVYYCAADDPRDHWYTAMDYWGQGTQVTVSS | low polyreactivity
QVQLVESGGGLVQAGRSLRLSCAASGNIFIRYAMGWYRQAPGKEREVVAAISQSGGGTSYADSVKGRFTISRDNAKNTVYLQMNSLKPEDTAVYYCNARYWRYPWRFGAWVGHDYWGQGTQVTVSS | low polyreactivity
QVQLVESGGGLVQAGRSLRLSCAASGRIFSRYTMGWYRQAPGKERELVAANSYRGGSTYYADSVKGRFTISRDNAKNTVYLQMNSLKPEDTEVYYCAARVQAIYRYDYCGQGTQVTVSS | high polyreactivity
QVQLVESGGGLVQAGRSLRLSCAASGRIFYGYAMGWYRQAPGRERELVAANTYIGGTYYADSVKGRFTISRDNAKNTVYLQMKSLKPEDTAVYYCATEPFYTYGYYTYPYWYDYWGQATQVTVSS | low polyreactivity

Sequence | polyreactivity (PSR sort gate)
QVQLVESGGGLVQAGRSLRLSCAASGSIFGFYAMGCYRQAPGKERELVAASTVSDGTTYYADSVKGRFTISRDNAKNSFFFLMNSVKPEDTVVYYCAGDVFRQHEYYYWGQGTQVTVSS | low polyreactivity
QVQLVESGGGLVQAGRSLRLSCAASGSILGFYAMGWYRHAPGKERELVAAIRWRAGSTYYADSVKGRFTISRDNAKNTVNLQMNSLKPEDTAVYYCAAPTKYRSRRYYWGQGTQVTVSS | high polyreactivity
QVQLVESGGGLVQAGRSLRLSCPASGRTVVYNSLGWYRQAPGKETEFVAAITRSRDSTYYADSVKGRFTISRDNASNPVYLEMNSLKPEDSAAYYCNAVSKRYWLMDYWGQGTQVTVSS | high polyreactivity
QVQLVESGGGLVQAGRSNRISCAASGGIFSYYAMGWYRQAPGKEREFVAAIDWGGGSTYYADSLKGRFTLSRDNAKNTVYLQMNSLKPEDTAVYYCAAEIYPIGWDDYDYWGQGTQVTVSS | low polyreactivity
QVQLVESGGGLVQAGRTLRLSCAASGRLFSHNAMGWYRQAPGKEREWVAAISGSGGSTYYADSVKGRFTISRDNAKNTVYLQMNSLKPEDTAVYYCAARFAVLVTRRFYYWGQGTQVTVSS | high polyreactivity
QVQLVESGGGLVQAGRTLRLSCAATGFIIVHNAMGWYRQPPGKERELVAAITSRGRTYYADSVKGRFTISRDHAKNTVYLQMNSLKPEDTAVYYCNPYWRGDYRYDSWGQGTQVTVSS | high polyreactivity
QVQLVESGGGLVQAGVILRLSCAASGRIITTYAMGRYRQAPGKERELVAAISARGGRTYYADSVKGRFTISRDNAKNTVYLQMNSLKPEDTAVYYCAAVSIQAYTRRQYDWGQGTQVTVSS | high polyreactivity
QVQLVESGGGLVQAGVRLRLSCAASGFIFVVNAMGWYRPATRKEREFVAVISSSTGSTYYADSVKGRFTISRDNAKYTVYLPMNSLKPEDTAVYYCAAASRRRRPLKRMDYWGQGTQVTVSS | low polyreactivity
QVQLVESGGGLVQAGVRLRLSCPASGTTFYYNAMGRYRQAPGKERELVAAITSGGRTKYADSVKGRFTISRDNAKNTVYLQKNRLKPEDTAVYYCNTYNRRSGTLPKAYDYWGQGTQVTVSS | high polyreactivity
QVQLVESGGGLVQAGVSLRISCAASGFTFSRNAMGWYRQAPGKESELVAAITWSGGRSYYADSVKGRFTISGDNAKNPVYLQMNSLKPEDTAVYYCAARKYPLRSAYDYWGPGTQVTVSS | low polyreactivity
QVQLVESGGGLVQAGVSLRISSAASGLIFGSNAMGWYRQAPGIERELVAAISWRGGSTYYADSVKGRFTISRDNAKKTVSCQMNSLKPEDTAVYYCAKYPYYYYWFNYCGQGTQVTVSS | high polyreactivity
QVQLVESGGGLVQAGVSLRLICAASGFIFPTKVMGWYRQAPATEREFVASITWRGGGTFYADSVKGRFTISRDNAKNTVYLQMNRLKPEDTAVYYCAAGRSWSSFWKYDYWGQGTQVTVSS | low polyreactivity
QVQLVESGGGLVQAGVSLRLICAASGSIFITNFMGWYRQAPGKERELVAVISASGGSTYYADSVKGRFTISRDNAKNNVYLQMNSMKPEDTAVYYCARTQRRYSYGQMGYWGQGTQVTVSS | high polyreactivity
QVQLVESGGGLVQAGVSLRLRCAASASILSYYAMGWYRHAPGKERELVAAISRSGCTTYYADSVKGRFTISRDYAKNTVYLQMNSLIPEDTAVYYCAAVDRYYAYRDYYYWGQGTQVTVSS | high polyreactivity
QVQLVESGGGLVQAGVSLRLSCAASGFIFRPYTMGWYRLAPGKERELVAAISRSGDSTYYADSVKGRFTISRDNAKNTVYLQMNSLKPEDTAVYYCAAYYNGRVGPYYYWGQGTQVTVSS | high polyreactivity
QVQLVESGGGLVQAGVSLRLSCAASGFNFVFYDMGWYRQAPGKERELVAGITRNDGSTYYADSVKGRFKISRDNAKNTVYLQMNSLKPEDTAVYYCAADRVRRNDKLAYDYWGQGTQVTVSS | low polyreactivity
QVQLVESGGGLVQAGVSLRLSCAASGFTFQAYAMGWYRQAPGKERELVAAIRSRGDSTYYADSVKGRFTISRDNSKNTVYLQMNSLKPEDTAVYYCNVLGYSYWGQGTQVTVSS | high polyreactivity
QVQLVESGGGLVQAGVSLRLSCAASGFTFYYYAMVRNRQAPGKERELVAAITGSGGGTYYADSVKGRFTISRDYAKNTVYLQKNSLKPEDTAVYYCNALYVSTSDFVYWGQGTQVTVSS | high polyreactivity
QVQLVESGGGLVQAGVSLRLSCAASGGILYWYAMGWSRQAPGKERELVAAIDWTGGSTYYADSVKGRFTISRDNAKNTVYLQMNSLKPEDTAVYYCAADSYWGSGVVPGYDYWGQGTQVTVSS | low polyreactivity
QVQLVESGGGLVQAGVSLRLSCAASGITFARYTMGWYRQAPGKERELVAAINTSGGSTRYADSVKGRFTISRDNAKNTVYLQMNSLKPEDTAVYYCAARRKHSLFGKRYYWGQGTQVTVSS | high polyreactivity
QVQLVESGGGLVQAGVSLRLSCAASGITLYRYVMGWNRQAPGKERELVADISGRGTSTYYADSVKGRFTSSRDYAKNTVYLQMYRLKPEATAVYYCNAEYTKTGALGIPYTYYYAEDYWGQGTQVTVSS | low polyreactivity
